Among the data in article PMC4245953, “Hug1 is an intrinsically disordered protein that inhibits ribonucleotide reductase activity by directly binding Rnr2 subunit” (Nucleic Acids Research, 2014) are Kd values, retold here.

The target in assay [1] is Rnr1 (Saccharomyces cerevisiae) (UniProt P21524). To be noted: cited from earlier work.
A further assay has as its target RNR R2 (Mus musculus) (UniProt P11157). To be noted: cited from earlier work.
Assay [2] deals with Cdc22 (R1) (Schizosaccharomyces pombe) (UniProt P36602). The settings on record: cited from earlier work.
Assay [3] concerns the target Rnr2-Rnr4 (Saccharomyces cerevisiae) (UniProt P09938). The settings on record: cited from earlier work.
In assay [4] the target is RNR R2 (Escherichia coli) (UniProt P69924). To be noted: cited from earlier work.
For a further assay, the target named is T1, (His)6-Rnr2-Rnr4 complex (S. cerevisiae, UniProt P09938 1-399; P49723 1-345).
T1 construct: Rnr2, S. cerevisiae; Rnr4, S. cerevisiae; also called Rnr2/4; source: E. coli BL21 (DE3) gold, co-expressed; purified (Ni-NTA, anion exchange) for NMR; 'purified' by the text or 'soluble extracts' by the legend in the pull-down
T1 sequence (looked up) 1: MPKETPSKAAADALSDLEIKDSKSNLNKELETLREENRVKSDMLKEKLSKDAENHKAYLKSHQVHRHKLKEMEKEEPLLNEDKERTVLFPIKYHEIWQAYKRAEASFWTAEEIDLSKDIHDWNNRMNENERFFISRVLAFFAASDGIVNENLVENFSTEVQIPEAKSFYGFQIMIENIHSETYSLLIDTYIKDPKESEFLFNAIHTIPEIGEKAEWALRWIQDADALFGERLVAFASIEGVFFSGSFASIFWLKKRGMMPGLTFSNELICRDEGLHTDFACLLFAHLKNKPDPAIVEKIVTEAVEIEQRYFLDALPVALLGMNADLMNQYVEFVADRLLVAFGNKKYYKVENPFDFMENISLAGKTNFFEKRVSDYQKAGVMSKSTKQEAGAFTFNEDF
T1 sequence (looked up) 2: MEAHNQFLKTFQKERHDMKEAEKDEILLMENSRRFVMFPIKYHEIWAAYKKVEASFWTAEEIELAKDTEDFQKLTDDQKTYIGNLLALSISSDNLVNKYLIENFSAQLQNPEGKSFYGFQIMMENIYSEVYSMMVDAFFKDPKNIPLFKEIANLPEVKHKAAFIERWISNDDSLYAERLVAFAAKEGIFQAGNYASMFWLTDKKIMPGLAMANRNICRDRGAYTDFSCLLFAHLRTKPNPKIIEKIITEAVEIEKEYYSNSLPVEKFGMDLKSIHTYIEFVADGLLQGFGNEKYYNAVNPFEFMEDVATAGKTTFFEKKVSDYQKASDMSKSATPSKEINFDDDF
The experiment in a line: NMR titration; 1H-15N HSQC of 15N-Hug1 with increasing unlabeled (His)6-Rnr2-Rnr4; Tris-d11 10 mM pH 7.5; 22°C (50 uM Hug1, ratios 1:0.125 to 1:1.6, global fit of four peaks, 1:1 model) and 9°C (16.4 uM Hug1, ratio 1:2). To be noted: both partners purified.

Sequence of RNR R2 (Mus musculus) (P11157 whole entry): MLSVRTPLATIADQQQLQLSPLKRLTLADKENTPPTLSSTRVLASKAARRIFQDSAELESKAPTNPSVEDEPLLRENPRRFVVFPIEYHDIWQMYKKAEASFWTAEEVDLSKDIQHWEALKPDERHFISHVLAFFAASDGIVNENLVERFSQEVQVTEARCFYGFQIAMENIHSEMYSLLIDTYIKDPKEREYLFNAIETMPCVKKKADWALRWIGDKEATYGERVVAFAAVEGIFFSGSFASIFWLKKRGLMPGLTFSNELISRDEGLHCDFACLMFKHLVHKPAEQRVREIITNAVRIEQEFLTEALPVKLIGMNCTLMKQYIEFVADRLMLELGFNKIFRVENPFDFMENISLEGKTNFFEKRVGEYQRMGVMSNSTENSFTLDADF
Sequence of Rnr1 (Saccharomyces cerevisiae) (P21524 whole entry): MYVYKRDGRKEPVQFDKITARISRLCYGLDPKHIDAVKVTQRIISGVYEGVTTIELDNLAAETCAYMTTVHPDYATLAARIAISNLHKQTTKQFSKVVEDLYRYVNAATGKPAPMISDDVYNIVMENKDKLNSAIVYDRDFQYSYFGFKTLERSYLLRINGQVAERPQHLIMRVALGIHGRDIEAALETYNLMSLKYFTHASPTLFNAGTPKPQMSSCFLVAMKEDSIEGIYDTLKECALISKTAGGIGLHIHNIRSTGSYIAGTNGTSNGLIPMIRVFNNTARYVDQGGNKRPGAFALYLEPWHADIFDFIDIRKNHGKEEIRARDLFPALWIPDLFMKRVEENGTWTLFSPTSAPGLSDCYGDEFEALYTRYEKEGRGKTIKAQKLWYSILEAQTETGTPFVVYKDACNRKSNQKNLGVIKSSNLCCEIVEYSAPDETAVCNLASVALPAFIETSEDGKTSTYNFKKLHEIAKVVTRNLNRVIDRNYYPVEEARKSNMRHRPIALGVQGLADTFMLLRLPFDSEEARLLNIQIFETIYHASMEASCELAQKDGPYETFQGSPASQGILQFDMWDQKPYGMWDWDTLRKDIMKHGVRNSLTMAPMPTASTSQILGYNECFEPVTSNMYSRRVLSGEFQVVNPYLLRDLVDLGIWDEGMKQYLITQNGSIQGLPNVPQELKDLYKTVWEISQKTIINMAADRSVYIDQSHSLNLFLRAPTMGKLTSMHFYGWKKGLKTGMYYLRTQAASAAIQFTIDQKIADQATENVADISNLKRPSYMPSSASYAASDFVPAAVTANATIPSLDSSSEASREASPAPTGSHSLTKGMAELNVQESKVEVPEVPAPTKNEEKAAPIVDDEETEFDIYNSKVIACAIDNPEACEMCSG
Sequence of RNR R2 (Escherichia coli) (P69924 2-376): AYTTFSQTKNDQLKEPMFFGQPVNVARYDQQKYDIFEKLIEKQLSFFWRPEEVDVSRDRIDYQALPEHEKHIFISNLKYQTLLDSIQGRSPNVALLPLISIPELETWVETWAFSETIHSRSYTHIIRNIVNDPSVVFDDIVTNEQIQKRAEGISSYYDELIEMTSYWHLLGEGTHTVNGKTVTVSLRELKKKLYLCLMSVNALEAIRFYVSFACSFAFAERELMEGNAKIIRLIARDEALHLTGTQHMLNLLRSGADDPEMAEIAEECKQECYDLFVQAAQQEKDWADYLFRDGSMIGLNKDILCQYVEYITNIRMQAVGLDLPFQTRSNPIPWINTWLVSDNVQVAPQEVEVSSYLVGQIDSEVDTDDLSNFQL
Sequence of Cdc22 (R1) (Schizosaccharomyces pombe) (P36602 whole entry): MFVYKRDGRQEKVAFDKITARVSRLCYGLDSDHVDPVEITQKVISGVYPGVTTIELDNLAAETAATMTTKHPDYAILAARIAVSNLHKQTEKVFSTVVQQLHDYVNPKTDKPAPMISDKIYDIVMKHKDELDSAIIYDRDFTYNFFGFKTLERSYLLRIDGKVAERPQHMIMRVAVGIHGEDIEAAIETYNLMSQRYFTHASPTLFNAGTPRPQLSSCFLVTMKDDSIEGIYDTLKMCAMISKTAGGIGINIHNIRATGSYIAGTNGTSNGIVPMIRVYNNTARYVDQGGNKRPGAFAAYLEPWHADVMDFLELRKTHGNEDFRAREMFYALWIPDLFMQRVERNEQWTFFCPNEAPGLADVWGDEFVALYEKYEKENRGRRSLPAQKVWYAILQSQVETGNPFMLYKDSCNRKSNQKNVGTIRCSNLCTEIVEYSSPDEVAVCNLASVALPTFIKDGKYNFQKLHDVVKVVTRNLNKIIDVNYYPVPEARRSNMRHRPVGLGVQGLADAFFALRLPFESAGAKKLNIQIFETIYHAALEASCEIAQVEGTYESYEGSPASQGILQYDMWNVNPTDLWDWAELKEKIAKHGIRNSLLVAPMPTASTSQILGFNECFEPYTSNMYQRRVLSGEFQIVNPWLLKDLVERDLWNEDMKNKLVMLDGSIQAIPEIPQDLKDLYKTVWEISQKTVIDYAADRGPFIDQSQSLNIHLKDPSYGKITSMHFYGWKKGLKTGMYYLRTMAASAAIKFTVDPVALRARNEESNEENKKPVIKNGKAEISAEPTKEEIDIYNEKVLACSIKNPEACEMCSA

Take Sml1 (from UniProt Q04964): the Kd in assay [1] was 400 nM.

Take RNR R1 (from UniProt P07742): in the assay with RNR R2 (Mus musculus), the Kd is 100 nM.

For Spd1 (from UniProt Q10585), the equilibrium dissociation constant (Kd) in assay [2] is 2400 nM.

As for Dif1 (from UniProt O13577), in assay [3], the Kd is 600 nM.

Turning to RNR R1 (from UniProt P00452), the dissociation constant Kd in assay [4] was 100 nM.

B1: Recombinant Hug1 (tags cleaved), 15N-labeled (natural protein, S. cerevisiae, UniProt Q6Q5K6 1-68, looked up)
chain: MTMDQGLNPKQFFLDDVVLQDTLCSMSNRVNKSVKTGYLFPKDHVPSANIIAVERRGGLSDIGKNTSN
modifications: also: uniformly 15N-labeled
notes: Hug1, S. cerevisiae, released from (His)6-GST-TEV site-Hug1 by TEV protease; calculated mass 7.5 kDa; protein of 68 residues; also called 15N-Hug1; purified recombinant Hug1; source: E. coli BL21 (DE3) gold, purified (Glutathione-agarose, TEV cleavage, Ni-NTA flow-through); not shown: His6, N-terminal, cleaved; GST, N-terminal, cleaved
Turning to B1, the dissociation constant (Kd) with (His)6-Rnr2-Rnr4 complex was found to be 1600 ± 600 nM.

The Kd is a measure of binding affinity in units of concentration.
